Experimental data from publication PMC2104711.

Key:
Details in all cases: remark: other sources report otherwise
[1] = molecular target: T1, human XLF (1–233) with N-terminal His6 tag (XLF410) (human), Q9H9Q4; assay: cross-linking
T1 chain: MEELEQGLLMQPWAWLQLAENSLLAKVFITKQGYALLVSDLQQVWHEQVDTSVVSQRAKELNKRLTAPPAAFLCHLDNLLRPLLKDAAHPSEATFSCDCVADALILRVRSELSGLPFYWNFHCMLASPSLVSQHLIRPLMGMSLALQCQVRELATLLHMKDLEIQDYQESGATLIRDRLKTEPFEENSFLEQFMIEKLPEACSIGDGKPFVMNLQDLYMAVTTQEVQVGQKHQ

[2] = molecular target: T2, SeMet-substituted human XLF (1–233) (SeMet-XLF441, cleaved) (human), Q9H9Q4; assay: crystal structure
T2 chain: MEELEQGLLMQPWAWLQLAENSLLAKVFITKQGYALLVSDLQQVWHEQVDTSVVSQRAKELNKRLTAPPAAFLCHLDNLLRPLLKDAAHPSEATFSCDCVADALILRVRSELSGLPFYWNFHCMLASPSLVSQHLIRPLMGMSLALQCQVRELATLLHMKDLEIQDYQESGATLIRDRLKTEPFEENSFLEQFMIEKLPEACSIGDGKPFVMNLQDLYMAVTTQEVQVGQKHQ

[3] = molecular target: T3, human XLF/Cernunnos (1–233), tag-free (cleaved XLF441) (human), Q9H9Q4; assay: dynamic light scattering
T3 chain: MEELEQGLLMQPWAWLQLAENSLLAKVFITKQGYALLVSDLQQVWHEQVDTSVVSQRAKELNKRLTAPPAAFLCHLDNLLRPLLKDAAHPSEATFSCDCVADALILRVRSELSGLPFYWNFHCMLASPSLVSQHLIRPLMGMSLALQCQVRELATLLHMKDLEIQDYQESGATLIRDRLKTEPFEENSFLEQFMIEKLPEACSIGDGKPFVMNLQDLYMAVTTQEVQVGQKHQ

B1: human XLF (1–233) with N-terminal His6 tag (XLF410), Q9H9Q4 1-233 (domain or fragment)
chain: MEELEQGLLMQPWAWLQLAENSLLAKVFITKQGYALLVSDLQQVWHEQVDTSVVSQRAKELNKRLTAPPAAFLCHLDNLLRPLLKDAAHPSEATFSCDCVADALILRVRSELSGLPFYWNFHCMLASPSLVSQHLIRPLMGMSLALQCQVRELATLLHMKDLEIQDYQESGATLIRDRLKTEPFEENSFLEQFMIEKLPEACSIGDGKPFVMNLQDLYMAVTTQEVQVGQKHQ
Question: Which stoichiometry N [1] does the source give for B1 here?
Answer: Its stoichiometry N is 2.

B2: SeMet-substituted human XLF (1–233) (SeMet-XLF441, cleaved), Q9H9Q4 1-233 (domain or fragment)
chain: MEELEQGLLMQPWAWLQLAENSLLAKVFITKQGYALLVSDLQQVWHEQVDTSVVSQRAKELNKRLTAPPAAFLCHLDNLLRPLLKDAAHPSEATFSCDCVADALILRVRSELSGLPFYWNFHCMLASPSLVSQHLIRPLMGMSLALQCQVRELATLLHMKDLEIQDYQESGATLIRDRLKTEPFEENSFLEQFMIEKLPEACSIGDGKPFVMNLQDLYMAVTTQEVQVGQKHQ
modifications: here or on the partner: selenomethionine-substituted (SeMet in place of methionine); selenomethionine-substituted (SeMet in place of methionine)
Question: Which stoichiometry N [2] does the source give for B2 here?
Answer: Its stoichiometry N is 2.

B3: human XLF/Cernunnos (1–233), tag-free (cleaved XLF441), Q9H9Q4 1-233 (domain or fragment)
chain: MEELEQGLLMQPWAWLQLAENSLLAKVFITKQGYALLVSDLQQVWHEQVDTSVVSQRAKELNKRLTAPPAAFLCHLDNLLRPLLKDAAHPSEATFSCDCVADALILRVRSELSGLPFYWNFHCMLASPSLVSQHLIRPLMGMSLALQCQVRELATLLHMKDLEIQDYQESGATLIRDRLKTEPFEENSFLEQFMIEKLPEACSIGDGKPFVMNLQDLYMAVTTQEVQVGQKHQ
Question: With B3 as the binder, how does the stoichiometry N [3] read?
Answer: The stoichiometry N was 2.
